Measured values: publication PMC3876282

Target: AvrPtoB BAK1-interacting domain, 250-359 (UniProt Q8RSY1)
Experiment: gel filtration co-migration, Coomassie SDS-PAGE
Conditions: reference: wild-type BAK1-KD

Substance	binding against the reference (sites T450)	binding against the reference (sites T449)
BAK1 kinase domain, 250-591 (from UniProt Q94F62) BAK1-KD T450A	lost	
BAK1 kinase domain, 250-591 (from UniProt Q94F62) BAK1-KD T449A		lost
